The target in one assay is T1, rat calcitonin receptor (rat, UniProt P32214 25-516).
T1 construct: whole, on cells; In cell membranes prepared from transiently transfected BHK tk'ts 13 cells (Assay VIII); also called rCTR; rat calcitonin (a) receptor
T1 sequence (looked up): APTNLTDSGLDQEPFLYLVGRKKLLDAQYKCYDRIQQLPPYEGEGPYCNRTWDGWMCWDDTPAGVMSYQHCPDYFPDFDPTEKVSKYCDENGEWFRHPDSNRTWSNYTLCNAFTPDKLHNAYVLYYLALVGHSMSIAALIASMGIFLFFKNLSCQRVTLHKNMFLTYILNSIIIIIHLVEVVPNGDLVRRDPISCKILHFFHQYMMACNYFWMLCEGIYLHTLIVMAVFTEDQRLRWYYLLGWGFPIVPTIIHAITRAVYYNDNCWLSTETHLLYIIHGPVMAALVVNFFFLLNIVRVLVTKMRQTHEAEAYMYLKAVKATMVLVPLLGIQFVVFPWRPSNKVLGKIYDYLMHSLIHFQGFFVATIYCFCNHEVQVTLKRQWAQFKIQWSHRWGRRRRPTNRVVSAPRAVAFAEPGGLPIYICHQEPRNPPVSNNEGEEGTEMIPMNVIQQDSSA
The experiment in a line: SPA competition binding, displacement of 125I-Calcitonin from membranes of BHK tk'ts 13 cells with rat calcitonin receptor (Assay VIII).

Assay [1] concerns the target T2, rat amylin receptor (rat calcitonin receptor + rat RAMP 3) (rat, UniProt P32214 25-516; Q9JJ73 23-147).
T2 construct: whole, on cells; Receptor complex in cell membranes prepared from transiently transfected BHK tk'ts 13 cells (Assay VI); also called rAmylin-R; rat amylin 3(a) receptor
T2 sequence (looked up) 1: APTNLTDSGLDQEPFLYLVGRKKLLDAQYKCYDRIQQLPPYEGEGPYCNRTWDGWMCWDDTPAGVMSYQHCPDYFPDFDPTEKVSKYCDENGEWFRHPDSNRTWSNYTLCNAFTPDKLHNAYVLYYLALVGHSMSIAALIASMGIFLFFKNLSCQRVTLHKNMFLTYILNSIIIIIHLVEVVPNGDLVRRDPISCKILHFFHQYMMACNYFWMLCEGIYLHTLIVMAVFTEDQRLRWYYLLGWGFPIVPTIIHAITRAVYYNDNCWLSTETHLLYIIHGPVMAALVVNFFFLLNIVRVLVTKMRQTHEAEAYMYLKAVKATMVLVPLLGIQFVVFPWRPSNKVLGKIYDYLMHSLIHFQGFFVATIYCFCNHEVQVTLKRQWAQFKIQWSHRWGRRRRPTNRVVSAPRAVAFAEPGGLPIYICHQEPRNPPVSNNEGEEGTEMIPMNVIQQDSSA
T2 sequence (looked up) 2: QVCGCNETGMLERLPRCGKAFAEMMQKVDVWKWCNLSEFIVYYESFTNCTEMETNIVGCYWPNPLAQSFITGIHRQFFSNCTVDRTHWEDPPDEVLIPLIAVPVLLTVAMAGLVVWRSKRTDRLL
The experiment in a line: SPA competition binding, displacement of 125I-rat amylin from membranes of BHK tk'ts 13 cells with rat calcitonin receptor + rat RAMP 3 (Assay VI). How it is done: The binding assay was performed using scintillation proximity assay (SPA) beads (RPNQ0001) from PerkinElmer and cell membranes from the Amylin 3(a)/CRE-luc cells (as described in Assay (II)) were used. Membranes were prepared in the following way; the cells were rinsed with PBS and incubated with Versene for approximately 5 min before harvesting. The cells were flushed with PBS and the cell-suspension was centrifuged for 5 min at 1000 rpm. Cells were homogenized (ultrathurrax) in a buffer containing 20 mM Na-HEPES and 10 mM EDTA (pH 7.4) and centrifuged at 20.000 rpm for 15 min. The resulting pellet was resuspended, homogenized and centrifuged (20.000 rpm, 15 min) in a buffer containing 20 mM Na-HEPES and 0.1 mM EDTA (pH 7.4, buffer 2). The resulting pellet was resuspended in buffer 2 and protein concentration was measured (BCA protein Assay, Pierce). The homogenate was kept cold during the whole procedure. The membranes were kept at −80° C. until use. The assay was performed in a 384 well Optiplate (PerkinElmer) in a total volume of 40 ul. Membranes were mixed with SPA beads. Final concentration of membranes 35 ng/μL final and SPA beads was 0.05 mg/well. Test-compounds were dissolved in DMSO and further diluted in assay buffer (50 mM Hepes, pH 7.4, 1 mM CaCl2, 5 mM MgCl₂, 0.1% OA and 0.02% Tween20). […] The final mixture was incubated with shaking at 400 rpm for 120 min at 25° C. prior to centrifugation (1500 rpm, 10 min). Samples were analyzed on TopCounter™ (Packard). The IC₅₀ was calculated using (one site binding competition analysis) GraphPad Prism5 as a measure of receptor affinity.
Cells were grown in DMEM with 10% FBS and 1% Pen/Strep. Approximately 48 hours after transfection, the cells were harvested and membranes were prepared.

Assay [2] addresses T3, human amylin 3(a) receptor (human calcitonin receptor co-expressed with RAMP-3) (human, UniProt P30988 25-474; O60896 24-148, limits assumed).
T3 sequence (looked up) 1: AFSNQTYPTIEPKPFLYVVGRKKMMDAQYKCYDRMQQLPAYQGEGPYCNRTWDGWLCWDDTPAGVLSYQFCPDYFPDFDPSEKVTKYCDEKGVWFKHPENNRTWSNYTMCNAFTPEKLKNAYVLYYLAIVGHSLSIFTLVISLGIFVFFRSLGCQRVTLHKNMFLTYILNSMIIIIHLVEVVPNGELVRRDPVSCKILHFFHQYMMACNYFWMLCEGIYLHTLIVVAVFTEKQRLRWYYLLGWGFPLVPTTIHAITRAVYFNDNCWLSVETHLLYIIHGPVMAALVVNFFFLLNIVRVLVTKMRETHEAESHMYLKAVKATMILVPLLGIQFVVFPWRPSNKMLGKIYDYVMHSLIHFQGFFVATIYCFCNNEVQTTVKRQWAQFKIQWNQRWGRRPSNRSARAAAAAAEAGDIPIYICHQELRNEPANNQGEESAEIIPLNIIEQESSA
T3 sequence (looked up) 2: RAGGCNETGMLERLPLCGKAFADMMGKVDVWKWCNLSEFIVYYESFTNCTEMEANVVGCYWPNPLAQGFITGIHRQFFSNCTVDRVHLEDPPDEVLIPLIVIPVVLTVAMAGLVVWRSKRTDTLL
The experiment in a line: cell-based or functional assay.

The target of assay [3] is T4, human calcitonin receptor (human, UniProt P30988 25-474).
T4 sequence (looked up): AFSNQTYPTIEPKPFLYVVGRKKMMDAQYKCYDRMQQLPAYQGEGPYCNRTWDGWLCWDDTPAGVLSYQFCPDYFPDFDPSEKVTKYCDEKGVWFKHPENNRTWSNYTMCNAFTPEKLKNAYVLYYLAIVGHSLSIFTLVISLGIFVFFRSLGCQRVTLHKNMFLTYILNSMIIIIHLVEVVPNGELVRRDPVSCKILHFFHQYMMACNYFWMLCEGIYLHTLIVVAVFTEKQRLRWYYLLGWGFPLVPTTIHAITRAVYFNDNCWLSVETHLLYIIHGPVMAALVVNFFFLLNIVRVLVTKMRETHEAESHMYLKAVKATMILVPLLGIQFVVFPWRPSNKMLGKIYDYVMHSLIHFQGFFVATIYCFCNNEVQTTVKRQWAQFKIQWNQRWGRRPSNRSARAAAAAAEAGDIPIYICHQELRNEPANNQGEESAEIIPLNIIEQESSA
The experiment in a line: cell-based or functional assay.

Numbered stars: 1 amine (or outer) side, 2 acyl side, 3 side chain; on linkers, the order of the positions; unused ones are H or OH. Bridge positions count the residues as written; N and C are the ends. Square brackets hold non-standard residues; d marks the D form. Side chains are listed from the residue outwards. Ends that are not written are not given here. * marks the point of attachment. C20 diacid = O=C(O)CCCCCCCCCCCCCCCCCCC(=O)*; γGlu = O=C(O)[C@H](CCC(=O)[*:2])N[*:1]

B1: N^ε1-[(4S)-4-carboxy-4-[[(4S)-4-carboxy-4-(19-carboxynonadecanoylamino)butanoyl]amino]butanoyl]-[D-Asp14,Arg17,Pro21,Pro27,Arg35]-h-amylin (peptide)
peptide: K([γGlu-γGlu-C20 diacid])CNTATCATQRLA[dD]FLRHSSPNFGAIPSSTNVGSRTY-NH2
modifications: disulfide 2-7; N-terminus assumed
SMILES: CC[C@H](C)[C@H](NC(=O)[C@H](C)NC(=O)CNC(=O)[C@H](Cc1ccccc1)NC(=O)[C@H](CC(N)=O)NC(=O)[C@@H]1CCCN1C(=O)[C@H](CO)NC(=O)[C@H](CO)NC(=O)[C@H](Cc1c[nH]cn1)NC(=O)[C@H](CCCNC(=N)N)NC(=O)[C@H](CC(C)C)NC(=O)[C@H](Cc1ccccc1)NC(=O)[C@@H](CC(=O)O)NC(=O)[C@H](C)NC(=O)[C@H](CC(C)C)NC(=O)[C@H](CCCNC(=N)N)NC(=O)[C@H](CCC(N)=O)NC(=O)[C@@H](NC(=O)[C@H](C)NC(=O)[C@@H]1CSSC[C@H](NC(=O)[C@@H](N)CCCCNC(=O)CC[C@H](NC(=O)CC[C@H](NC(=O)CCCCCCCCCCCCCCCCCCC(=O)O)C(=O)O)C(=O)O)C(=O)N[C@@H](CC(N)=O)C(=O)N[C@@H]([C@@H](C)O)C(=O)N[C@@H](C)C(=O)N[C@@H]([C@@H](C)O)C(=O)N1)[C@@H](C)O)C(=O)N1CCC[C@H]1C(=O)N[C@@H](CO)C(=O)N[C@@H](CO)C(=O)N[C@H](C(=O)N[C@@H](CC(N)=O)C(=O)N[C@H](C(=O)NCC(=O)N[C@@H](CO)C(=O)N[C@@H](CCCNC(=N)N)C(=O)N[C@H](C(=O)N[C@@H](Cc1ccc(O)cc1)C(N)=O)[C@@H](C)O)C(C)C)[C@@H](C)O
notes: residue 14 is D-aspartic acid (printed 14d)
For B1, the IC50 in the assay with rat calcitonin receptor was found to be 536 nM; in assay [1], 1.69 nM.

B2: N^ε1-[(4S)-4-carboxy-4-(19-carboxynonadecanoylamino)butanoyl]-[Glu14,Arg17,Pro21,Pro27,Arg35]-h-amylin (peptide)
peptide: K([γGlu-C20 diacid])CNTATCATQRLAEFLRHSSPNFGAIPSSTNVGSRTY-NH2
modifications: disulfide 2-7; N-terminus assumed
SMILES: CC[C@H](C)[C@H](NC(=O)[C@H](C)NC(=O)CNC(=O)[C@H](Cc1ccccc1)NC(=O)[C@H](CC(N)=O)NC(=O)[C@@H]1CCCN1C(=O)[C@H](CO)NC(=O)[C@H](CO)NC(=O)[C@H](Cc1c[nH]cn1)NC(=O)[C@H](CCCNC(=N)N)NC(=O)[C@H](CC(C)C)NC(=O)[C@H](Cc1ccccc1)NC(=O)[C@H](CCC(=O)O)NC(=O)[C@H](C)NC(=O)[C@H](CC(C)C)NC(=O)[C@H](CCCNC(=N)N)NC(=O)[C@H](CCC(N)=O)NC(=O)[C@@H](NC(=O)[C@H](C)NC(=O)[C@@H]1CSSC[C@H](NC(=O)[C@@H](N)CCCCNC(=O)CC[C@H](NC(=O)CCCCCCCCCCCCCCCCCCC(=O)O)C(=O)O)C(=O)N[C@@H](CC(N)=O)C(=O)N[C@@H]([C@@H](C)O)C(=O)N[C@@H](C)C(=O)N[C@@H]([C@@H](C)O)C(=O)N1)[C@@H](C)O)C(=O)N1CCC[C@H]1C(=O)N[C@@H](CO)C(=O)N[C@@H](CO)C(=O)N[C@H](C(=O)N[C@@H](CC(N)=O)C(=O)N[C@H](C(=O)NCC(=O)N[C@@H](CO)C(=O)N[C@@H](CCCNC(=N)N)C(=O)N[C@H](C(=O)N[C@@H](Cc1ccc(O)cc1)C(N)=O)[C@@H](C)O)C(C)C)[C@@H](C)O
notes: h-amylin derivative; disulfide bridge and C-terminal amide as told for human amylin; also called compound 51
As to B2, the “Ratio hCT/hAmylin funct.” value in assay [2] came to 14. For the same molecule, the “hCTR funct. EC50” value in assay [3] turned out to be 5.22 nM.

B3: N^-1-[(4S)-4-carboxy-4-(19-carboxynonadecanoylamino)butanoyl]-Gly[Arg1,Arg17,Pro21,Pro27,His35]-h-amylin (peptide)
peptide: {C20 diacid-γGlu}-GRCNTATCATQRLANFLRHSSPNFGAIPSSTNVGSHTY-NH2
modifications: disulfide 3-8
SMILES: CC[C@H](C)[C@H](NC(=O)[C@H](C)NC(=O)CNC(=O)[C@H](Cc1ccccc1)NC(=O)[C@H](CC(N)=O)NC(=O)[C@@H]1CCCN1C(=O)[C@H](CO)NC(=O)[C@H](CO)NC(=O)[C@H](Cc1c[nH]cn1)NC(=O)[C@H](CCCNC(=N)N)NC(=O)[C@H](CC(C)C)NC(=O)[C@H](Cc1ccccc1)NC(=O)[C@H](CC(N)=O)NC(=O)[C@H](C)NC(=O)[C@H](CC(C)C)NC(=O)[C@H](CCCNC(=N)N)NC(=O)[C@H](CCC(N)=O)NC(=O)[C@@H](NC(=O)[C@H](C)NC(=O)[C@@H]1CSSC[C@H](NC(=O)[C@H](CCCNC(=N)N)NC(=O)CNC(=O)CC[C@H](NC(=O)CCCCCCCCCCCCCCCCCCC(=O)O)C(=O)O)C(=O)N[C@@H](CC(N)=O)C(=O)N[C@@H]([C@@H](C)O)C(=O)N[C@@H](C)C(=O)N[C@@H]([C@@H](C)O)C(=O)N1)[C@@H](C)O)C(=O)N1CCC[C@H]1C(=O)N[C@@H](CO)C(=O)N[C@@H](CO)C(=O)N[C@H](C(=O)N[C@@H](CC(N)=O)C(=O)N[C@H](C(=O)NCC(=O)N[C@@H](CO)C(=O)N[C@@H](Cc1c[nH]cn1)C(=O)N[C@H](C(=O)N[C@@H](Cc1ccc(O)cc1)C(N)=O)[C@@H](C)O)C(C)C)[C@@H](C)O
notes: h-amylin derivative, N-terminally extended by one residue; disulfide bridge and C-terminal amide as told for human amylin; also called compound 47
Regarding B3, the “Ratio hCT/hAmylin funct.” value in assay [2] was 6. In addition, the “hCTR funct. EC50” value in assay [3] worked out at 1.32 nM.

These data come from patent US20140087995A1 (published 2014).
